This note sets out measurements from the supplement of paper PMC11316812.

± gives the standard deviation of the averaged measurements.

One series concerns MCF7. The series is described as follows: percentage of EdU-negative (G0-arrested) nuclei per well, 72 h; higher = more G0 arrest. The conditions noted are these: reference: sequence is the full UniProt precursor, the tested protein was the secreted form or ectodomain.
The test system of another series is hTERT-HMEC. The description is as above. The conditions noted are these: reference: sequence is the full UniProt precursor, the tested protein was the secreted form or ectodomain.
Setting [1] is: protein concentration 0.01392 µM.
The mark [2] stands for this setting: protein concentration 0.1392 µM.
Setting [3] is: protein concentration 0.0055 µM.
Setting [4] is: protein concentration 0.0225 µM.
Setting [5] is: protein concentration 0.01175 µM.
Setting [6] is: protein concentration 0.1175 µM.
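Further: secreted proteins added to cultured cells, EdU pulse at the end, nuclei found by Hoechst imaging, EdU status from nuclear versus surrounding ring intensity ratio, PBS as neutral control.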

In the case of “MRLKNLTFIIILIISGELYAEEKPCGFPHVENGRIAQYYYTFKSFYFPMSIDKKLSFFCLAGYTTESGRQEEQTTCTTEGWSPEPRCFKKCTKPDLSNGYISDVKLLYKIQENMRYGCASGYKTTGGKDEEVVQCLSDGWSSQPTCRKEHETCLAPELYNGNYSTTQKTFKVKDKVQYECATGYYTAGGKKTEEVECLTYGWSLTPKCTKLKCSSLRLIENGYFHPVKQTYEEGDVVQFFCHENYYLSGSDLIQCYNFGWYPESPVCEGRRNRCPPPPLPINSKIQTHSTTYRHGEIVHIECELNFEIHGSAEIRCEDGKWTEPPKCIEGQEKVACEEPPFIENGAANLHSKIYYNGDKVTYACKSGYLLHGSNEITCNRGKWTLPPECVENNENCKHPPVVMNGAVADGILASYATGSSVEYRCNEYYLLRGSKISRCEQGKWSSPPVCLEPCTVNVDYMNRNNIEMKWKYEGKVLHGDLIDFVCKQGYDLSPLTPLSELSVQCNRGEVKYPLCTRKESKGMCTSPPLIKHGVIISSTVDTYENGSSVEYRCFDHHFLEGSREAYCLDGMWTTPPLCLEPCTLSFTEMEKNNLLLKWDFDNRPHILHGEYIEFICRGDTYPAELYITGSILRMQCDRGQLKYPRCIPRQSTLSYQEPLRT”, the “percentage of EdU-negative” value in the series on MCF7 (setting [1]) is 26.7 ± 0.98%; in the series with MCF7 (setting [2]) it was 25.4 ± 0.69%; in the series with hTERT-HMEC (setting [1]), 5.59 ± 0.28%; with hTERT-HMEC (setting [2]), 7.25 ± 1.1%.
With “MRLLAKIICLMLWAICVAEDCNELPPRRNTEILTGSWSDQTYPEGTQAIYKCRPGYRSLGNVIMVCRKGEWVALNPLRKCQKRPCGHPGDTPFGTFTLTGGNVFEYGVKAVYTCNEGYQLLGEINYRECDTDGWTNDIPICEVVKCLPVTAPENGKIVSSAMEPDREYHFGQAVRFVCNSGYKIEGDEEMHCSDDGFWSKEKPKCVEISCKSPDVINGSPISQKIIYKENERFQYKCNMGYEYSERGDAVCTESGWRPLPSCEEKSCDNPYIPNGDYSPLRIKHRTGDEITYQCRNGFYPATRGNTAKCTSTGWIPAPRCTLKPCDYPDIKHGGLYHENMRRPYFPVAVGKYYSYYCDEHFETPSGSYWDHIHCTQDGWSPAVPCLRKCYFPYLENGYNQNYGRKFVQGKSIDVACHPGYALPKAQTTVTCMENGWSPTPRCIRVKTCSKSSIDIENGFISESQYTYALKEKAKYQCKLGYVTADGETSGSITCGKDGWSAQPTCIKSCDIPVFMNARTKNDFTWFKLNDTLDYECHDGYESNTGSTTGSIVCGYNGWSDLPICYERECELPKIDVHLVPDRKKDQYKVGEVLKFSCKPGFTIVGPNSVQCYHFGLSPDLPICKEQVQSCGPPPELLNGNVKEKTKEEYGHSEVVEYYCNPRFLMKGPNKIQCVDGEWTTLPVCIVEESTCGDIPELEHGWAQLSSPPYYYGDSVEFNCSESFTMIGHRSITCIHGVWTQLPQCVAIDKLKKCKSSNLIILEEHLKNKKEFDHNSNIRYRCRGKEGWIHTVCINGRWDPEVNCSMAQIQLCPPPPQIPNSHNMTTTLNYRDGEKVSVLCQENYLIQEGEEITCKDGRWQSIPLCVEKIPCSQPPQIEHGTINSSRSSQESYAHGTKLSYTCEGGFRISEENETTCYMGKWSSPPQCEGLPCKSPPEISHGVVAHMSDSYQYGEEVTYKCFEGFGIDGPAIAKCLGEKWSHPPSCIKTDCLSLPSFENAIPMGEKKDVYKAGEQVTYTCATYYKMDGASNVTCINSRWTGRPTCRDTSCVNPPTVQNAYIVSRQMSKYPSGERVRYQCRSPYEMFGDEEVMCLNGNWTEPPQCKDSTGKCGPPPPIDNGDITSFPLSVYAPASSVEYQCQNLYQLEGNKRITCRNGQWSEPPKCLHPCVISREIMENYNIALRWTAKQKLYSRTGESVEFVCKRGYRLSSRSHTLRTTCWDGKLEYPTCAKR”, the “percentage of EdU-negative” value was determined as 25.1 ± 0.8% in the series with MCF7 (setting [3]), 25.5 ± 2.4% with MCF7 (protein concentration 0.055 µM), 5.14 ± 0.38% in the series on hTERT-HMEC (setting [3]) and 7.65 ± 0.92% in the series on hTERT-HMEC (protein concentration 0.055 µM).
Take “MRLLCGLWLWLSLLKVLQAQTPTPLPLPPPMQSFQGNQFQGEWFVLGLAGNSFRPEHRALLNAFTATFELSDDGRFEVWNAMTRGQHCDTWSYVLIPAAQPGQFTVDHGVEPGADREETRVVDSDYTQFALMLSRRHTSRLAVLRISLLGRSWLLPPGTLDQFICLGRAQGLSDDNIVFPDVTGWSPQASVC [Q6JVE5]”: the “percentage of EdU-negative” value was determined as 28.3 ± 4% in the series with MCF7 (setting [4]), 32.23 ± 0.31% in the series on MCF7 (protein concentration 0.225 µM), 4.84 ± 0.32% with hTERT-HMEC (setting [4]) and 5.1 ± 0.82% with hTERT-HMEC (protein concentration 0.225 µM).
With “MRLLPLAPGRLRRGSPRHLPSCSPALLLLVLGGCLGVFGVAAGTRRPNVVLLLTDDQDEVLGGMTPLKKTKALIGEMGMTFSSAYVPSALCCPSRASILTGKYPHNHHVVNNTLEGNCSSKSWQKIQEPNTFPAILRSMCGYQTFFAGKYLNEYGAPDAGGLEHVPLGWSYWYALEKNSKYYNYTLSINGKARKHGENYSVDYLTDVLANVSLDFLDYKSNFEPFFMMIATPAPHSPWTAAPQYQKAFQNVFAPRNKNFNIHGTNKHWLIRQAKTPMTNSSIQFLDNAFRKRWQTLLSVDDLVEKLVKRLEFTGELNNTYIFYTSDNGYHTGQFSLPIDKRQLYEFDIKVPLLVRGPGIKPNQTSKMLVANIDLGPTILDIAGYDLNKTQMDGMSLLPILRGASNLTWRSDVLVEYQGEGRNVTDPTCPSLSPGVSQCFPDCVCEDAYNNTYACVRTMSALWNLQYCEFDDQEVFVEVYNLTADPDQITNIAKTIDPELLGKMNYRLMMLQSCSGPTCRTPGVFDPGYRFDPRLMFSNRGSVRTRRFSKHLL”, the “percentage of EdU-negative” value in the series on MCF7 (setting [5]) is 25.19 ± 0.18%; in the series on MCF7 (setting [6]), 25.1 ± 1.3%; with hTERT-HMEC (setting [5]) it was 5.009 ± 0.019%; in the series on hTERT-HMEC (setting [6]), 5.44 ± 1.4%.
“MRLLPLLRTVLWAAFLGSPLRGGSSLRHVVYWNSSNPRLLRGDAVVELGLNDYLDIVCPHYEGPGPPEGPETFALYMVDWPGYESCQAEGPRAYKRWVCSLPFGHVQFSEKIQRFTPFSLGFEFLPGETYYYISVPTPESSGQCLRLQVSVCCKERKSESAHPVGSPGESGTSGWRGGDTPSPLCLLLLLLLLILRLLRIL”: the “percentage of EdU-negative” value in the series with MCF7 (setting [4]) turned out to be 27.2 ± 2.5%; with MCF7 (protein concentration 0.225 µM) it was 25.7 ± 0.36%; with hTERT-HMEC (setting [4]), 5.7 ± 0.081%; in the series on hTERT-HMEC (protein concentration 0.225 µM) it was 8.57 ± 0.56%.
Take “MRLLQLLFRASPATLLLVLCLQLGANKAQDNTRKIIIKNFDIPKSVRPNDEVTAVLAVQTELKECMVVKTYLISSIPLQGAFNYKYTACLCDDNPKTFYWDFYTNRTVQIAAVVDVIRELGICPDDAAVIPIKNNRFYTIEILKVE”: the “percentage of EdU-negative” value with MCF7 (setting [4]) was 25.1 ± 2.6%; with MCF7 (protein concentration 0.225 µM), 25.5 ± 0.54%; in the series with hTERT-HMEC (setting [4]), 4.779 ± 0.024%; in the series on hTERT-HMEC (protein concentration 0.225 µM) it was 5.95 ± 1.6%.
For the sequence “MRLLVLLWGCLLLPGYEALEGPEEISGFEGDTVSLQCTYREELRDHRKYWCRKGGILFSRCSGTIYAEEEGQETMKGRVSIRDSRQELSLIVTLWNLTLQDAGEYWCGVEKRGPDESLLISLFVFPGPCCPPSPSPTFQPLATTRLQPKAKAQQTQPPGLTSPGLYPAATTAKQGKTGAEAPPLPGTSQYGHERTSQYTGTSPHPATSPPAGSSRPPMQLDSTSAEDTSPALSSGSSKPRVSIPMVRILAPVLVLLSLLSAAGLIAFCSHLLLWRKEAQQATETQRNEKFCLSRLTAEEKEAPSQAPEGDVISMPPLHTSEEELGFSKFVSA [K7EL06]”, the “percentage of EdU-negative” value stood at 26 ± 1.2% in the series with MCF7 (setting [4]), 24.7 ± 3.6% in the series with MCF7 (protein concentration 0.225 µM), 5.2 ± 0.081% with hTERT-HMEC (setting [4]) and 5.26 ± 0.58% with hTERT-HMEC (protein concentration 0.225 µM).
Turning to “MRLPGVPLARPALLLLLPLLAPLLGTGAPAELRVRVRLPDGQVTEESLQADSDADSISLELRKPDGTLVSFTADFKKDVKVFRALILGELEKGQSQFQALCFVTQLQHNEIIPSEAMAKLRQKNPRAVRQAEEVRGLEHLHMDVAVNFSQGALLSPHLHNVCAEAVDAIYTRQEDVRFWLEQGVDSSVFEALPKASEQAELPRCRQVGDHGKPCVCRYGLSLAWYPCMLKYCHSRDRPTPYKCGIRSCQKSYSFDFYVPQRQLCLWDEDPYPG [Q86UD1]”, the “percentage of EdU-negative” value in the series with MCF7 (setting [4]) turned out to be 26.92 ± 0.26%; with MCF7 (protein concentration 0.225 µM), 29.75 ± 0.17%; with hTERT-HMEC (setting [4]), 4.6 ± 0.4%; with hTERT-HMEC (protein concentration 0.225 µM), 14.9 ± 2%.
